Test results as given in patent publication US20190359722A1 (TOYO UNIVERSITY, published 2019).
Blank lines part the entries; values can stand above or below the binder they belong to.

Molecular target: T1, full-length human EPHA2 expressed on 293T cells (pcDNA-DEST40-EPHA2) (human, UniProt P29317 24-976)
T1 construct: The stop codon was removed before transfer into pcDNA-DEST40; also called EPHA2-expressing 293T cells
Experiment: flow cytometry, hybridoma supernatant on EPHA2-transfected 293T cells
Method: 293T cells were seeded at a density of 5×10⁴ cells/cm² on a collagen type I-coated flask (IWAKI), and were then cultured in DMEM supplemented with 10% FBS at 37° C. in 5% CO₂ under a humidified atmosphere overnight. On the following day, the 293T cells were transfected with each of pcDNA-DEST40-EPHA2 and pcDNA-DEST40-ERBB2 (negative control), using Lipofectamine 2000 (Invitrogen, Thermo Fisher Scientific), and thereafter, the resulting cells were further cultured at 37° C. in 5% CO₂ under a humidified atmosphere overnight. On the following day, the transfected cells were treated with trypsin, and were then washed with DMEM supplemented with 10% FBS. The resulting cells were suspended in 5% FBS-containing PBS. These cells were used in Cell-ELISA and flow cytometric analysis.
In order to eliminate false-positive results in the Cell-ELISA, the specific binding ability of antibodies generated by the hybridomas that had been determined to be positive in the Cell-ELISA was confirmed by flow cytometry. The cells prepared in the above 1)-6-1 were mixed with a culture supernatant of the hybridomas, and the obtained mixture was then incubated at 4° C. for 1 hour. […]

T1 sequence (P29317 24-976 limits assumed): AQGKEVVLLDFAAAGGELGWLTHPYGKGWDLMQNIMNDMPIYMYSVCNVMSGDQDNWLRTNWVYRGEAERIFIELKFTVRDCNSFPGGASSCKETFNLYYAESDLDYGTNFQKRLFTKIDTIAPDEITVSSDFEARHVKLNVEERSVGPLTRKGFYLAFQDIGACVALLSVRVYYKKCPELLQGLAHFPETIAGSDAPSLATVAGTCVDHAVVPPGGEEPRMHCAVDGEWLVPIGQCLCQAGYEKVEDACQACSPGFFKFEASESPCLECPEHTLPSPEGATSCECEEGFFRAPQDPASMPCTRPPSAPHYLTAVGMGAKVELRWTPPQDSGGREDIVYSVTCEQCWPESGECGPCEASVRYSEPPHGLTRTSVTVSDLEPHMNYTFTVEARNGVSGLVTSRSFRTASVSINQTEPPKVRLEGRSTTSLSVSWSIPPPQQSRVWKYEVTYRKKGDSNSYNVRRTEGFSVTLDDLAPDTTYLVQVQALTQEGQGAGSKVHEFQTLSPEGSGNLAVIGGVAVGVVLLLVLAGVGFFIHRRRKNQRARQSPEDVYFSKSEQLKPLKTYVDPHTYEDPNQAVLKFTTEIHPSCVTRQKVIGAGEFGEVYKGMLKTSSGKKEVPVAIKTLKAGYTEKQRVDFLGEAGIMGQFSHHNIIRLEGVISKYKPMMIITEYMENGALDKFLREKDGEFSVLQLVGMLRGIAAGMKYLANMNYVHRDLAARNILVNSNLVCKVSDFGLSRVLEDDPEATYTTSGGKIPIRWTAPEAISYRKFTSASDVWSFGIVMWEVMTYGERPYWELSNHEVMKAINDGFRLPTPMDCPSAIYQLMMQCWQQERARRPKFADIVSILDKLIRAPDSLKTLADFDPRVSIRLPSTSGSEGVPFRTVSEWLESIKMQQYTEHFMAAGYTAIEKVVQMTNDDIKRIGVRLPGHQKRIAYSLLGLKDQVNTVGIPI

binding result: binds
B1: mouse anti-EPHA2 monoclonal antibody 230-1 (antibody, V domains shown)
VH: EVQLVESGGGLVKPGGSLKLSCEASGFTFSDYYMYWVRQTPEKRLEWVATISDDGSFTHYLDSVKGRFTISRDNAQNNLYLQMSSLKSDDTAMYYCARDGYRYDRPFAYWGQGTLVTVSA
VL: DIVMTQSHKFMSTSVGDRVRITCKASQDVNTAVAWYQQKPGQSPKLLIYWASTRHTGVPDRFTGSGSGTDYSLTISSVQAEDLALYYCQQHYSTPYTFGGGTKLEIKR
notes: The variable regions were found by 5'-RACE; Used unlabeled as capture antibody and biotin-labeled as detection antibody; also called biotin-labeled antibody 230-1

binding result: binds
B2: mouse anti-EPHA2 monoclonal antibody 57-1 (antibody, V domains shown)
VH: QIQLVQSGPELKKPGETVKISCKGSGYTFTNYGMNWVKQAPGKGLKWMAWINTDTGEPIFVEEFKGRFAFSLETSASTAYLQINNLTNEDTATYFCARSMGGFANWGQGTLVTVSA
VL: DIVMTQSPATLSVTPGDRVSLSCRASQNISDYLHWYQQKSHESPRLLIKYASQSISGIPSRFSGSGSGSDFTLTINSVEPEDVAMYYCQNGHTFPTFGAGTKLELKR
notes: The variable regions were found by 5'-RACE; Used unlabeled as capture antibody and biotin-labeled as detection antibody; also called biotin-labeled antibody 57-1
